Measured values as given in publication PMC5714204.

Experiments:
Assay in all cases: fluorescence polarization
RNase R ΔHTH-K = biological target: T1, RNase R ΔHTH-K (Escherichia coli BL21(DE3), UniProt P21499 87-725)
T1 sequence: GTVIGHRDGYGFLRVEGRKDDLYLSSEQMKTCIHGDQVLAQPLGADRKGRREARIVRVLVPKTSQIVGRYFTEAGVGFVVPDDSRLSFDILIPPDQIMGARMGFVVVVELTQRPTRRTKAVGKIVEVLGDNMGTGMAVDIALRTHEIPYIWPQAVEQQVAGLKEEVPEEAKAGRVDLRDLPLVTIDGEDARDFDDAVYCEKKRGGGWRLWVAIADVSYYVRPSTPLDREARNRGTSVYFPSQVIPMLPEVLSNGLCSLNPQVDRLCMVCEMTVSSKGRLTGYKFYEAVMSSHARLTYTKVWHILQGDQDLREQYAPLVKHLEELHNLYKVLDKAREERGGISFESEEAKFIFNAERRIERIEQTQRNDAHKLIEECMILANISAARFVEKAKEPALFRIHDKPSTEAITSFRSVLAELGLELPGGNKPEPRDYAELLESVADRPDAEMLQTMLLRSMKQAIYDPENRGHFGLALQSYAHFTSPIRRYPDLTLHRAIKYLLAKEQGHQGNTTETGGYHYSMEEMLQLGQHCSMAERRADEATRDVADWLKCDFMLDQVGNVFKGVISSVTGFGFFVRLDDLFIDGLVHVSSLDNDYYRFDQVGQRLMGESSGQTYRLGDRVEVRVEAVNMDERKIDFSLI

RNase R (full-length) = biological target: T2, RNase R (full-length) (Escherichia coli BL21(DE3), UniProt P21499 1-813)
T2 sequence: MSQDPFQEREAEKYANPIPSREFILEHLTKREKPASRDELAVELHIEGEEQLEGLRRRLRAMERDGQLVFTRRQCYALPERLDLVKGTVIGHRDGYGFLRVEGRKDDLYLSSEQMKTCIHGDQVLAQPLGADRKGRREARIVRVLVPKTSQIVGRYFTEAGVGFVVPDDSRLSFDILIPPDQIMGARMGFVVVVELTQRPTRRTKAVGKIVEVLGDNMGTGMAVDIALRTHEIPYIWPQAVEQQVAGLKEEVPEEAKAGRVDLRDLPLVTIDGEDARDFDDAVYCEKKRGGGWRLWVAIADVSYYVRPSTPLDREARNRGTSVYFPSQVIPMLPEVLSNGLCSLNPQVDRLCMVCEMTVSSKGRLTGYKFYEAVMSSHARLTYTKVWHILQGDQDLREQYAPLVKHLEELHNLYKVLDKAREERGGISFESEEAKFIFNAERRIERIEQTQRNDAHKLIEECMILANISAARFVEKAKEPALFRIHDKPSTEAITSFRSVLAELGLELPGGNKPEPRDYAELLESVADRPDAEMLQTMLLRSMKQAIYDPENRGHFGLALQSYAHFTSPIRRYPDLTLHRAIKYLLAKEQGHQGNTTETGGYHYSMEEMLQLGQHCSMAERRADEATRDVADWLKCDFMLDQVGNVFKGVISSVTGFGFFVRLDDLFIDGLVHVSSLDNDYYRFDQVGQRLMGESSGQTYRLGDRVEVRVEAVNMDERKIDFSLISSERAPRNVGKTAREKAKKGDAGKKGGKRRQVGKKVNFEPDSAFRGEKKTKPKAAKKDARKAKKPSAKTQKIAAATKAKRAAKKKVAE

RNase R Δ3H = biological target: T3, RNase R Δ3H (Escherichia coli BL21(DE3), UniProt P21499 1-813, del487-545)
T3 sequence: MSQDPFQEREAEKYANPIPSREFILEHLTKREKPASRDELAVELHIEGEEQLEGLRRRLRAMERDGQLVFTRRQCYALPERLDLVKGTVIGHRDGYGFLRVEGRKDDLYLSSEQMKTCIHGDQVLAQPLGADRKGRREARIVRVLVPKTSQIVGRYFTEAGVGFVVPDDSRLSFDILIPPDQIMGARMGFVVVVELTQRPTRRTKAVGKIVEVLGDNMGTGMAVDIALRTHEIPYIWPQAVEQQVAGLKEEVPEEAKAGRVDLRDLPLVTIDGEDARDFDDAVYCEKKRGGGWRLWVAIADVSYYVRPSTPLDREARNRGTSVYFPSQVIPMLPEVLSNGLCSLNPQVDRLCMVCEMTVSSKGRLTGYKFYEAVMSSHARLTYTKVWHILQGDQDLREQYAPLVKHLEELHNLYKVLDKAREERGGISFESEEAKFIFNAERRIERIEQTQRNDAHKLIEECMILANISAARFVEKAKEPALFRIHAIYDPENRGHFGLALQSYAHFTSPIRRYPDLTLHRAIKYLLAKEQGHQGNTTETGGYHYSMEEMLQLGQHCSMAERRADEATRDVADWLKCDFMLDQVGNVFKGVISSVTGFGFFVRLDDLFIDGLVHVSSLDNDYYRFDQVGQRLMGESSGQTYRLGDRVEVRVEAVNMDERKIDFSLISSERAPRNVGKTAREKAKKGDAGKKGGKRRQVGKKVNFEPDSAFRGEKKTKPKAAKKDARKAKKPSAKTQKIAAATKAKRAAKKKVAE

RNase R 1H = biological target: T4, RNase R 1H (Escherichia coli BL21(DE3), UniProt P21499 1-523+=AQPTGFLDSRIRRFQS+545-813, internal_change)
T4 sequence: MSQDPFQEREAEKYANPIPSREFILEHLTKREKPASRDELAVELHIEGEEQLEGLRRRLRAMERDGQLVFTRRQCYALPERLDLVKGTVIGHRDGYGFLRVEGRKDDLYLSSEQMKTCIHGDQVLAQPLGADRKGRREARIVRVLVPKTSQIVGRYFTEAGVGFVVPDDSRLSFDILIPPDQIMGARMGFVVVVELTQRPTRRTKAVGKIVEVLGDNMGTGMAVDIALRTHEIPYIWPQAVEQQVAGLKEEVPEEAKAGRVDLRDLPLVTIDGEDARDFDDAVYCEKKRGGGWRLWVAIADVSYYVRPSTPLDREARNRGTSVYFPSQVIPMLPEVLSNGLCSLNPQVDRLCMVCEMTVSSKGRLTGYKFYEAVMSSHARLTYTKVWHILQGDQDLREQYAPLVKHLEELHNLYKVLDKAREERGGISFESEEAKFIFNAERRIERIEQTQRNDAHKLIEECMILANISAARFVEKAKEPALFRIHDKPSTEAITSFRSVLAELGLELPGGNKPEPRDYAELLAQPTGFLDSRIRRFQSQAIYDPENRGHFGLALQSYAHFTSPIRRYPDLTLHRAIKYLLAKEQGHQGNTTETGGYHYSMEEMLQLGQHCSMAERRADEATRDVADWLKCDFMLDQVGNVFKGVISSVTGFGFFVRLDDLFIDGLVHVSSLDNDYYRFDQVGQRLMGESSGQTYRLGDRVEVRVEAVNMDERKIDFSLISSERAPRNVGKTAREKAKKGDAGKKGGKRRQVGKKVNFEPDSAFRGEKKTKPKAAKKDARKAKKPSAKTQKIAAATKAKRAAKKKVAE

In the case of AAAAAAAAAAAAAAAAAAAAAAAAAAAAAA (ssRNA) [Cy3-poly(A)30 ssRNA], the Kd (RNase R ΔHTH-K) is reported as 8.6 ± 1 nM, the Kd (RNase R (full-length)) is reported as 11.2 ± 1.2 nM and the Kd (RNase R Δ3H) is reported as 23.8 ± 2.6 nM. The Kd (RNase R 1H) was 9.9 ± 1 nM.
